Laboratory results published in publication PMC4157578 (Molecular Cell, 2014).

B1: Mcm4 (subunit of the MCM complex) (natural protein)
chain: MSQQSSSPTKEDNNSSSPVVPNPDSVPPQLSSPALFYSSSSSQGDIYGRNNSQNLSQGEGNIRAAIGSSPLNFPSSSQRQNSDVFQSQGRQGRIRSSASASGRSRYHSDLRSDRALPTSSSSLGRNGQNRVHMRRNDIHTSDLSSPRRIVDFDTRSGVNTLDTSSSSAPPSEASEPLRIIWGTNVSIQECTTNFRNFLMSFKYKFRKILDEREEFINNTTDEELYYIKQLNEMRELGTSNLNLDARNLLAYKQTEDLYHQLLNYPQEVISIMDQTIKDCMVSLIVDNNLDYDLDEIETKFYKVRPYNVGSCKGMRELNPNDIDKLINLKGLVLRSTPVIPDMKVAFFKCNVCDHTMAVEIDRGVIQEPARCERIDCNEPNSMSLIHNRCSFADKQVIKLQETPDFVPDGQTPHSISLCVYDELVDSCRAGDRIEVTGTFRSIPIRANSRQRVLKSLYKTYVDVVHVKKVSDKRLDVDTSTIEQELMQNKVDHNEVEEVRQITDQDLAKIREVAAREDLYSLLARSIAPSIYELEDVKKGILLQLFGGTNKTFTKGGRYRGDINILLCGDPSTSKSQILQYVHKITPRGVYTSGKGSSAVGLTAYITRDVDTKQLVLESGALVLSDGGVCCIDEFDKMSDSTRSVLHEVMEQQTISIAKAGIITTLNARSSILASANPIGSRYNPNLPVTENIDLPPPLLSRFDLVYLVLDKVDEKNDRELAKHLTNLYLEDKPEHISQDDVLPVEFLTMYISYAKEHIHPIITEAAKTELVRAYVGMRKMGDDSRSDEKRITATTRQLESMIRLAEAHAKMKLKNVVELEDVQEAVRLIRSAIKDYATDPKTGKIDMNLVQTGKSVIQRKLQEDLSREIMNVLKDQASDSMSFNELIKQINEHSQDRVESSDIQEALSRLQQEDKVIVLGEGVRRSVRLNNRV
B2: CBP-Mcm3 (subunit of the MCM complex) (natural protein)
chain: MEGSTGFDGDATTFFAPDAVFGDRVRRFQEFLDTFTSYRDSVRSIQVYNSNNAANYNDDQDDADERDLLGDDDGDDLEKEKKAASSTSLNILPHRIIISLDDLREFDRSFWSGILVEPAYFIPPAEKALTDLADSMDDVPHPNASAVSSRHPWKLSFKGSFGAHALSPRTLTAQHLNKLVSVEGIVTKTSLVRPKLIRSVHYAAKTGRFHYRDYTDATTTLTTRIPTPAIYPTEDTEGNKLTTEYGYSTFIDHQRITVQEMPEMAPAGQLPRSIDVILDDDLVDKTKPGDRVNVVGVFKSLGAGGMNQSNSNTLIGFKTLILGNTVYPLHARSTGVAARQMLTDFDIRNINKLSKKKDIFDILSQSLAPSIYGHDHIKKAILLMLMGGVEKNLENGSHLRGDINILMVGDPSTAKSQLLRFVLNTASLAIATTGRGSSGVGLTAAVTTDRETGERRLEAGAMVLADRGVVCIDEFDKMTDVDRVAIHEVMEQQTVTIAKAGIHTTLNARCSVIAAANPVFGQYDVNRDPHQNIALPDSLLSRFDLLFVVTDDINEIRDRSISEHVLRTHRYLPPGYLEGEPVRERLNLSLAVGEDADINPEEHSNSGAGVENEGEDDEDHVFEKFNPLLQAGAKLAKNKGNYNGTEIPKLVTIPFLRKYVQYAKERVIPQLTQEAINVIVKNYTDLRNDDNTKKSPITARTLETLIRLATAHAKVRLSKTVNKVDAKVAANLLRFALLGEDIGNDIDEEESEYEEALSKRSPQKSPKKRQRVRQPASNSGSPIKSTPRRSTASSVNATPSSARRILRFQDDEQNAGEDDNDIMSPLPADEEAELQRRLQLGLRVSPRRREHLHAPEEGSSGPLTEVGTPRLPNVSSAGQDDEQQQSVISFDNVEPGTISTGRLSLISGIIARLMQTEIFEEESYPVASLFERINEELPEEEKFSAQEYLAGLKIMSDRNNLMVADDKVWRV
B3: Mcm2 (subunit of the MCM complex) (natural protein)
chain: MSDNRRRRREEDDSDSENELPPSSPQQHFRGGMNPVSSPIGSPDMINPEGDDNEVDDVPDIDEVEEQMNEVDLMDDNMYEDYAADHNRDRYDPDQVDDREQQELSLSERRRIDAQLNERDRLLRNVAYIDDEDEEQEGAAQLDEMGLPVQRRRRRRQYEDLENSDDDLLSDMDIDPLREELTLESLSNVKANSYSEWITQPNVSRTIARELKSFLLEYTDETGRSVYGARIRTLGEMNSESLEVNYRHLAESKAILALFLAKCPEEMLKIFDLVAMEATELHYPDYARIHSEIHVRISDFPTIYSLRELRESNLSSLVRVTGVVTRRTGVFPQLKYVKFNCLKCGSILGPFFQDSNEEIRISFCTNCKSKGPFRVNGEKTVYRNYQRVTLQEAPGTVPPGRLPRHREVILLADLVDVSKPGEEVEVTGIYKNNYDGNLNAKNGFPVFATIIEANSIKRREGNTANEGEEGLDVFSWTEEEEREFRKISRDRGIIDKIISSMAPSIYGHRDIKTAVACSLFGGVPKNVNGKHSIRGDINVLLLGDPGTAKSQILKYVEKTAHRAVFATGQGASAVGLTASVRKDPITKEWTLEGGALVLADKGVCLIDEFDKMNDQDRTSIHEAMEQQSISISKAGIVTTLQARCSIIAAANPNGGRYNSTLPLAQNVSLTEPILSRFDILCVVRDLVDEEADERLATFVVDSHVRSHPENDEDREGEELKNNGESAIEQGEDEINEQLNARQRRLQRQRKKEEEISPIPQELLMKYIHYARTKIYPKLHQMDMDKVSRVYADLRRESISTGSFPITVRHLESILRIAESFAKMRLSEFVSSYDLDRAIKVVVDSFVDAQKVSVRRQLRRSFAIYTLGH
B4: Mcm5 (subunit of the MCM complex) (natural protein)
chain: MSFDRPEIYSAPVLQGESPNDDDNTEIIKSFKNFILEFRLDSQFIYRDQLRNNILVKNYSLTVNMEHLIGYNEDIYKKLSDEPSDIIPLFETAITQVAKRISILSRAQSANNNDKDPENTSMDTDSLLLNSLPTFQLILNSNANQIPLRDLDSEHVSKIVRLSGIIISTSVLSSRATYLSIMCRNCRHTTSITINNFNSITGNTVSLPRSCLSTIESESSMANESNIGDESTKKNCGPDPYIIIHESSKFIDQQFLKLQEIPELVPVGEMPRNLTMTCDRYLTNKVIPGTRVTIVGIYSIYNSKNGAGSGRSGGGNGGSGVAIRTPYIKILGIQSDVETSSIWNSVTMFTEEEEEEFLQLSRNPKLYEILTNSIAPSIFGNEDIKKAIVCLLMGGSKKILPDGMRLRGDINVLLLGDPGTAKSQLLKFVEKVSPIAVYTSGKGSSAAGLTASVQRDPMTREFYLEGGAMVLADGGVVCIDEFDKMRDEDRVAIHEAMEQQTISIAKAGITTVLNSRTSVLAAANPIYGRYDDLKSPGDNIDFQTTILSRFDMIFIVKDDHNEERDISIANHVINIHTGNANAMQNQQEENGSEISIEKMKRYITYCRLKCAPRLSPQAAEKLSSNFVTIRKQLLINELESTERSSIPITIRQLEAIIRITESLAKLELSPIAQERHVDEAIRLFQASTMDAASQDPIGGLNQASGTSLSEIRRFEQELKRRLPIGWSTSYQTLRREFVDTHRFSQLALDKALYALEKHETIQLRHQGQNIYRSGV
B5: Mcm7 (subunit of the MCM complex) (natural protein)
chain: MSAALPSIQLPVDYNNLFNEITDFLVTFKQDTLSSDATRNENEDENLDAENIEQHLLEKGPKYMAMLQKVANRELNSVIIDLDDILQYQNEKFLQGTQADDLVSAIQQNANHFTELFCRAIDNNMPLPTKEIDYKDDVLDVILNQRRLRNERMLSDRTNEIRSENLMDTTMDPPSSMNDALREVVEDETELFPPNLTRRYFLYFKPLSQNCARRYRKKAISSKPLSVRQIKGDFLGQLITVRGIITRVSDVKPAVEVIAYTCDQCGYEVFQEVNSRTFTPLSECTSEECSQNQTKGQLFMSTRASKFSAFQECKIQELSQQVPVGHIPRSLNIHVNGTLVRSLSPGDIVDVTGIFLPAPYTGFKALKAGLLTETYLEAQFVRQHKKKFASFSLTSDVEERVMELITSGDVYNRLAKSIAPEIYGNLDVKKALLLLLVGGVDKRVGDGMKIRGDINVCLMGDPGVAKSQLLKAICKISPRGVYTTGKGSSGVGLTAAVMKDPVTDEMILEGGALVLADNGICCIDEFDKMDESDRTAIHEVMEQQTISISKAGINTTLNARTSILAAANPLYGRYNPRLSPLDNINLPAALLSRFDILFLMLDIPSRDDDEKLAEHVTYVHMHNKQPDLDFTPVEPSKMREYIAYAKTKRPVMSEAVNDYVVQAYIRLRQDSKREMDSKFSFGQATPRTLLGIIRLSQALAKLRLADMVDIDDVEEALRLVRVSKESLYQETNKSKEDESPTTKIFTIIKKMLQETGKNTLSYENIVKTVRLRGFTMLQLSNCIQEYSYLNVWHLINEGNTLKFVDDGTMDTDQEDSLVSTPKLAPQTTASANVSAQDSDIDLQDA

Columns and labels:
Assay in all cases: SEC
[1] = molecular target: B2
[2] = molecular target: Mcm6 (subunit of the MCM complex) (S. cerevisiae, UniProt P53091 1-1017)
Mcm6 (subunit of the MCM complex), sequence (P53091 whole entry, one chain of several): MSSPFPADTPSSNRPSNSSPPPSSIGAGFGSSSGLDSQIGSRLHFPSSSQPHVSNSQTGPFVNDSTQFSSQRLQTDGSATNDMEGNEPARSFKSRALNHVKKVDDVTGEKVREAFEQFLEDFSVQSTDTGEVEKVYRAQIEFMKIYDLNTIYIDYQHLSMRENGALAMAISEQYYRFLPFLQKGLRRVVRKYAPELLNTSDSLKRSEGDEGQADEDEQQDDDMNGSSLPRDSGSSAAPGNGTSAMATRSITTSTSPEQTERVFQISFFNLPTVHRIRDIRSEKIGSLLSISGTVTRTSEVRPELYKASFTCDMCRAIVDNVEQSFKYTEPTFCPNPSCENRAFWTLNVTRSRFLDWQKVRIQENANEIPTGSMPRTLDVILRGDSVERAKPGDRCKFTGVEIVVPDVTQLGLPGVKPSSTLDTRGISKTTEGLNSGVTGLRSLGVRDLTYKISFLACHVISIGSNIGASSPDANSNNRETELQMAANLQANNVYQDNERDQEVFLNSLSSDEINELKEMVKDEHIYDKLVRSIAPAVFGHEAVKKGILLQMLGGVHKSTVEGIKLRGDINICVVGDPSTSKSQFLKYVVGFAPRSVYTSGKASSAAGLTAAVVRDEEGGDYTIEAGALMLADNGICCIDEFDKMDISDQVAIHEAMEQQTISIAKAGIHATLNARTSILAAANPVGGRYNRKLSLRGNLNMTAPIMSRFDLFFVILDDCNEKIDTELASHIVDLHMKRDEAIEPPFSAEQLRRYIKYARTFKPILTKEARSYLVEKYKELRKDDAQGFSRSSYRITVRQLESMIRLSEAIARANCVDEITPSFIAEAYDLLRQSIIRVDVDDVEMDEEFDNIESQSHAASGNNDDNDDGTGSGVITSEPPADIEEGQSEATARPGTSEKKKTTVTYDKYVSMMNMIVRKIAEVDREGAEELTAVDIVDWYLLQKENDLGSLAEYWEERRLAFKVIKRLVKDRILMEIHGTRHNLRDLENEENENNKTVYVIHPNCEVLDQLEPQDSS

[3] = molecular target: B5

binding result [1]	Binder	other results
binds	B1	
	B2	binding result [2]: binds
binds	B3	
	B4	binding result [3]: binds
binds	B5	
